Laboratory results: paper PMC11375770, “Fragment-Based Interrogation of the 14–3–3/TAZ Protein–Protein Interaction” (Biochemistry, 2024)
Blank lines part the entries; values can stand above or below the molecule they belong to. Where no end group is shown, it is not given here. [ ]: non-standard residue; d: D form. pS = N[C@@H](COP(=O)(O)O)C(=O)O

What was measured:
14-3-3ζ = biological target: T1, 14-3-3ζ (Homo sapiens, UniProt P63104); experiment: MST dose-response; also DSF and WaterLOGSY NMR with the TAZ peptide complex; assay type: binding
T1 construct: gene YWHAZ; with ERα-derived phosphopeptide (similar Kd with TAZpS89 peptide)
T1 sequence (P63104 1-245): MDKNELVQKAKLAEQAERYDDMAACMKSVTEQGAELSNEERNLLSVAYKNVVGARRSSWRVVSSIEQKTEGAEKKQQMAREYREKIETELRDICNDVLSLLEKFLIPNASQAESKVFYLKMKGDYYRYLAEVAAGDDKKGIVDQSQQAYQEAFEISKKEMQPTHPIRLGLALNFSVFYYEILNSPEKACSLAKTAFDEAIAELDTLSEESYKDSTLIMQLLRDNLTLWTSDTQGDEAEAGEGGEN
T1 sequence (P03372 1-595 partner): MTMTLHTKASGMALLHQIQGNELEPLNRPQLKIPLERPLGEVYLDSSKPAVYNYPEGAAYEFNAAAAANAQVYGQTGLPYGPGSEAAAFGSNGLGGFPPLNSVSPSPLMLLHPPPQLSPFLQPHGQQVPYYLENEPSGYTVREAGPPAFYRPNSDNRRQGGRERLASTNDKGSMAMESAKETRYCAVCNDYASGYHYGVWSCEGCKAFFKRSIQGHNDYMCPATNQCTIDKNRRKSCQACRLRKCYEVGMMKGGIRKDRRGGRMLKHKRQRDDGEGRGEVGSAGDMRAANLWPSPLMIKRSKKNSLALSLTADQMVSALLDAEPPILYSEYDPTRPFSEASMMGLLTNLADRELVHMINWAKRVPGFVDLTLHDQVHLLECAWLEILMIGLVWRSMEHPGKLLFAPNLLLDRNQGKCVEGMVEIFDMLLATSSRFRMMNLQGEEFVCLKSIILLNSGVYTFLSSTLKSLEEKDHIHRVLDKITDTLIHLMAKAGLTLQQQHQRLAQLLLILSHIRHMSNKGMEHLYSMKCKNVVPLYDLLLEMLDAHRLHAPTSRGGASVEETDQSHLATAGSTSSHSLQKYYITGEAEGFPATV

[1] = biological target: T2, 14-3-3ζ labelled with NT647-NHS dye (human, UniProt P63104 1-245, NT647-NHS dye (Monolith Protein Labeling Kit RED-NHS); labelled residues not stated); experiment: MST; TAZpS89 peptide titrated against a fixed concentration of NT647-labelled 14-3-3ζ; DPBS with 0.05% Tween20, 25 °C; apparent Kd; absence of fragment; conditions: both partners purified
T2 construct: Same construct as m1, with the fluorescent dye for MST; also called labeled 14-3-3ζ; source: E. coli BL21 (DE3), pProEX HTb plasmid, purified (Ni2+-NTA), labelled with Monolith Protein Labeling Kit RED-NHS
T2 sequence (looked up): T1 sequence (P63104 1-245)

[2] = biological target: T2, 14-3-3ζ labelled with NT647-NHS dye; experiment: MST; TAZpS89 peptide titrated against a fixed concentration of NT647-labelled 14-3-3ζ; DPBS with 0.05% Tween20, 25 °C; apparent Kd; presence of 1 mM fragment TCF199; conditions: both partners purified
[3] = biological target: T3, 14-3-3σΔC (C-terminally truncated after T231) (human, UniProt P31947 1-231); experiment: crystal structure; 14-3-3σΔC mixed 1:2 with the peptide, sitting drop, 0.095 M Hepes pH 7.5, PEG 400 26%, 0.19 M CaCl2, 5% glycerol; crystals soaked with 10 mM TCF199; conditions: both partners purified
T3 construct: also called 14-3-3sigma
T3 sequence (looked up): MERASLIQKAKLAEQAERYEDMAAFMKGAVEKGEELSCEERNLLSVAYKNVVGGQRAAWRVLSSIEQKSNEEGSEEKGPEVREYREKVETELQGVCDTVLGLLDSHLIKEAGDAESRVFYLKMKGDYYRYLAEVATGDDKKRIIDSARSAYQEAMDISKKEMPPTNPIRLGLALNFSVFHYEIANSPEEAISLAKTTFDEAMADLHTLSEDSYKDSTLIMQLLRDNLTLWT

- Kd (14-3-3ζ): 112 ± 77 µM
Molecule: O=C(Nc1ccccc1)OCC12CCCCC1NCCC2 (stereo not shown) [TCF199]

- Kd [1]: 1380 nM
- Kd [2]: 40 nM
- binding result [3]: binds
B1: TAZpS89 peptide (peptide)
peptide: QHVRSH[pS]SPASLQ
notes: TAZ-derived peptide surrounding phosphorylated Ser89; The methods of crystallisation say only 'the peptide'; also called TAZ-derived peptide; TAZ peptide; source: synthetic peptide (bought: Caslo, Denmark)
